Results: the nanobody polyreactivity screen of Harvey et al. (2022)

Test: yeast display, Sf9 membrane polyspecificity reagent, FACS + sequencing; frameworks hold sequencing errors
Method in brief: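 Galactose-induced (36–48 hours) yeast carrying a synthetic nanobody display library were exposed to 10% biotinylated, detergent-solubilized Sf9 membrane reagent at 4 °C for 1 hour. FACS followed streptavidin microbead enrichment, using low and high (top ~1%) gates for expression (anti-HA) and reagent binding (streptavidin). Colony PCR, MiSeq 2 × 250 sequencing and CDR-length filtering followed. Labels for polyreactivity reflect the gate of origin.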

Row | Sequence | polyreactivity (PSR sort gate)
1 | QVQLQESGGGLVQAGGSLRRSCAATGSIFYRLKMGWHRQATGKERELVATIDPGSNTYYADSVKGSFTMSRDNAKNTVYPQMYSLKPEDTAVYYCAVSAHWTIHYYYWGQGTQVTVSS | high polyreactivity
2 | QVQLVESGGGLVQAGGSLRLSCAASGTFQSYAMGWNRQAPGKERELVAAISRSGASTYYADSVKGRFTISRDNAKNTVYLQMISLKPEDTAVYYFAARKTSKYYYWGQGTQVTVSS | high polyreactivity
3 | QVQLVESGGGLVQAGGSLRLSCAASGSTFGSNAMGWSRQAPGKERELVAAITYSGGRTYYADSVQGRFTISRDNAKNTVYLQMNSLKPEDPAVYYCAATFGFFYYQYDYWGQGTQVTVSS | low polyreactivity
4 | QVQLVESGGGLVQAGGSLRLSCAASGSISGYYTMGWYRQAPGKERELVAAISRSGVRTYYADSVKGRFTISRDNAMNTVYLQMNSLKPEDTAVYYCARKDSSLGDYWGQGTQVTVSS | high polyreactivity
5 | QVQLVESGGGLVQAGGSLRLSCAASGFIFVYYVMGWYRQAPGKERELVAAITQSGGSTYYADSVKGRFTISRDNAKYTVYLQMNSLKPEDTAVYYCAAYRRTTGGGYDYWGQGTQVTVSS | high polyreactivity
6 | QVQLVESGGGLVQAGGSLRLSCAASGSIFYSNTIGWYRQAPRKERELDAAITSGGGTNYADSVKGRFTISRDNAKNTVYLQMNSLKPEDTAVYYCAAVTKTLYRSYFLMYYWGQGTQVTVSS | high polyreactivity
7 | QVKLVESGGGLVQAGGSLRLSCAASGRTFPYYAKGWYRQAPGKERELVAAISWSGGSTYYADSVKGRFTISRDNAKNTVYLQMNSLKPEDTAVYYCNTVFSPWPDFRRFGYWGQGTQVTVSS | high polyreactivity
8 | QVQLVESGGGLVQAGGSLRLSCAASGSTFSENAMGWYRQAPGKERELVAAISWGGGSTYYADSVKGRFTISRDYAKNTVYLQMNSLKPEDTAVYYCNADVFDDYGYFESDYWGQGTQVTVSS | low polyreactivity
9 | QVQLVESGGGLVQAGGSLRLSCAASGRTFSGYAMGWYRQAPGKERELVAAIRWSGGSTYYADSVKGRFTISRDNAKNTVYLQMNSLKPEDTAVYYCATRDYYYRYGYWGQGTQVTVSS | high polyreactivity
10 | QVQLVESGGGLVQAGGSLRLSCAASGSTFYKNAMGWYRQAPGKERELVAAITRSGGSTYYADSVKGRFTISRDNAKNTVYLQMNSLKPVDTAVYYCAYYPYGYDYWGQGTQVTVSS | high polyreactivity
11 | QVQLVESGGGLVQAGGSLRLSCAASGSIFSVYVMGWYRQAPGKERELVAAISWSDSDTYYADSVKGRFTISRDNAKNTVYLQMNSLKPEDTAVYYCAAETFDYADYIANGSGEYDYWGQGTQVTVSS | high polyreactivity
12 | QVQLVESGGGLVQAGGSLRLSCAASGLTFPSNAMGWYRQAPGKERELVAAISKRGGRKYYADSVKGRFTISRDNAKNTVYLQMNSLKPEDTAVYYCATPYAYPGTVQYARYNYWGQGTQVTVSS | high polyreactivity
13 | QVQLVESGGGLVQAGGSLRLSCAASGSILRYYAMGWYRQAPGKERELVAAITGRGGRTYYADSVKGRFTISRDNAKYTVYLQMNSLKPEDTAVYYCAADGDNPYLHEEDYWGQGTQVTVSS | high polyreactivity
14 | QVQLVESGGGLVQAGGSLRLSCAASGRIFSSYAMGWYRKAPGKERELVAAIRRGGGSTSYADSVKGRFTISRDNAKNTVYLQMNSLKPEDTAVYYCAADSPRGQVHYIGGYWGQGTQVTVSS | low polyreactivity
15 | QVQLVESGGGLVQAGGSRLSCAASGLIFISYTMGWYRQAPGKERELVAAIDSSGGNTYYADSVKGRFTISRDNAKNTVYLQMNSLKPDDTAVYYCNAAWPYKSVEYCGQGTQVTVSS | low polyreactivity
16 | QVQLVESGGGLVQAGGSLRLSCAASGRTFRFYTMGWYRQAPGKERELVADISWTSGRTYYADSVKGRFTISRDNAKNTVYLQMNSLKPEDTAVYYCAAYFFSRYSLYDYWGQGTQVTVSS | high polyreactivity
17 | QVQLVESGGGLVQAGGSLRLSCAASGSTLRPYGMGWYRQAPGKERELVATIRSSSGRTYYADSVKGRFTISRDNAKTTVYLQMTSLKPEDTAVYYCARRYITNIKYDYWGQGTQVTVSS | high polyreactivity
18 | QDQHVESGGGLVQAGGSLRLICAASGSIIQVYAIGWYRQAPGKEREFVASITRTGGSTKYADSVKGRFTISRDNAKNTVYLQMNSLKPEDTAFFYCNAVPRSWSPYRHWFDYWGQGTQVTVSS | low polyreactivity
19 | QVQLVESGGGLVQAGGSLRLSCAASGRTFARYTMGWYRQAPGKERELVASITRGGSTYYADSVKGRFTISRDNAKNTVYLQMNSLKPEDTAVYYCAARFPQHNYWAMDYWGQGTQVTVSS | high polyreactivity
20 | QVQLVESGGGLVQAGGSLRLSFAASGFIFYRYVMGWYRQAPGKERELVAAITWSGGSTYYADSVKGRFTISRDNAKNTVYLQMNSLKPEDTAVYYCNAESNLYFRYDYWGQGTQVTVSS | low polyreactivity
21 | QVQLVESGGGLVQAGGSLRLSCAASGRIFRANAMGWYRQAPGKERELVAAISYRGGSTYYADSVKGRFTISRDNAKNTVYLQMNSLKPEDTAVYYCAADSDRSVWIYGYWGQGTQVTVSS | low polyreactivity
22 | QVQLVESGGGLVQAGGSLRLSCAASGSTLVFYAMGWYRQAPGKERELVAAITRSGGSTYYADSVKGRFTISRDNEKNTVYLQMNSLKPEDTAFYYCAADERYIYERDSWGQGTQVTVSS | low polyreactivity
